Experimental data: publication PMC5407579

How the values were obtained:
[1] = target: α subunit of the oxygenase component of 3-nitrotoluene dioxygenase (3NTDO-ODS2) from Diaphorobacter sp. strain DS2 (Diaphorobacter sp. strain DS2); test: crystal structure; oxygenase 3NTDO-ODS2 (α and β co-expressed and co-purified), hanging drop vapor diffusion at 277 K, 0.2M sodium citrate tribasic and 20% PEG 3350 pH 8.3; molecular replacement with 1NDO; 2.9 Å
[2] = target: β subunit of the oxygenase component of 3-nitrotoluene dioxygenase (3NTDO-ODS2) from Diaphorobacter sp. strain DS2 (Diaphorobacter sp. strain DS2); test: as above

| Substance | stoichiometry N [1] | stoichiometry N [2] |
| --- | --- | --- |
| α subunit of the oxygenase component of 3-nitrotoluene dioxygenase (3NTDO-ODS2) from Diaphorobacter sp. strain DS2 (natural protein) | 3 | – |
| β subunit of the oxygenase component of 3-nitrotoluene dioxygenase (3NTDO-ODS2) from Diaphorobacter sp. strain DS2 (natural protein) | – | 3 |
